T1: wild-type human CLDN-5 protein (human, UniProt O00501 1-218)
T1 construct: Four-transmembrane tight junction protein expressed by retrovirus on HT-1080 (or MDCKII) cells; also called hCLDN-5; human Claudin-5 protein
T1 sequence: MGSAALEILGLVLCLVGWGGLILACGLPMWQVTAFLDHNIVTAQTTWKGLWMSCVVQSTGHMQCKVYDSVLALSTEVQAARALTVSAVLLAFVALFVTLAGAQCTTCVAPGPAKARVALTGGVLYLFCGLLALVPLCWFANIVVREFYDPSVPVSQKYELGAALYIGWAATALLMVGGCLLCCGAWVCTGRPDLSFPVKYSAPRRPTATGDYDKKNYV

T2: mCLDN-3 protein (mouse, UniProt Q9Z0G9 1-219)
T2 construct: Expressed on cells by retrovirus; also called mouse Claudin-3 protein
T2 sequence: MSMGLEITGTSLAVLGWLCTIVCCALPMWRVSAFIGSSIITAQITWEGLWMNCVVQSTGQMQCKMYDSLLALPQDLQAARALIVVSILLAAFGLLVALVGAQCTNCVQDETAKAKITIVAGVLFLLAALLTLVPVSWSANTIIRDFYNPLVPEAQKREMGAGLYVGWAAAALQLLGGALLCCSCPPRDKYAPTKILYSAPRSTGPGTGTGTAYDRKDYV

T3: mouse CLDN-5 protein (mouse, UniProt O54942 1-218)
T3 construct: Expressed on cells by retrovirus; also called mCLDN-5; MDCKII/mCLDN-5
T3 sequence: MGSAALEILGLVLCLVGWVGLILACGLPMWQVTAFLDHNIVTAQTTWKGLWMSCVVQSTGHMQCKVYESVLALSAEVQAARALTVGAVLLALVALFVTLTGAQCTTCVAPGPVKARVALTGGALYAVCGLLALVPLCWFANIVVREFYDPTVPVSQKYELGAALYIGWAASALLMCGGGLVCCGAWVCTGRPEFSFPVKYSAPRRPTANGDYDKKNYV

T4: mCLDN-1 protein (mouse, UniProt O88551 1-211)
T4 construct: Expressed on cells by retrovirus; also called mouse Claudin-1 protein
T4 sequence: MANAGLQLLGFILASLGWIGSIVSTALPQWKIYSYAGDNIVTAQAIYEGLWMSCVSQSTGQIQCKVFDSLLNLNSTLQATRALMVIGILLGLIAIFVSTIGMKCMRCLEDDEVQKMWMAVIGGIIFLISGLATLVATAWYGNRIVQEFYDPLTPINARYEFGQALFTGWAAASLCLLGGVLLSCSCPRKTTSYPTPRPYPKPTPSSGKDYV

T5: mCLDN-2 protein (mouse, UniProt O88552 1-230)
T5 construct: Expressed on cells by retrovirus; also called mouse Claudin-2 protein
T5 sequence: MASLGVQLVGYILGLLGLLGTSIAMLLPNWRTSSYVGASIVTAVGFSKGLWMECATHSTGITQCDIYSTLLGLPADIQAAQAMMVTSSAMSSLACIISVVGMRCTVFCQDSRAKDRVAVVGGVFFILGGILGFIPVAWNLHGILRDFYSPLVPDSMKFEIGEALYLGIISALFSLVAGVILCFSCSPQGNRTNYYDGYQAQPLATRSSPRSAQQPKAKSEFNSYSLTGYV

T6: crab-eating macaque CLDN-5 protein (crab-eating macaque, UniProt O00501 1-218 (human entry))
T6 construct: Expressed on cells by retrovirus; also called cCLDN-5; MDCKII/cCLDN-5
T6 chain: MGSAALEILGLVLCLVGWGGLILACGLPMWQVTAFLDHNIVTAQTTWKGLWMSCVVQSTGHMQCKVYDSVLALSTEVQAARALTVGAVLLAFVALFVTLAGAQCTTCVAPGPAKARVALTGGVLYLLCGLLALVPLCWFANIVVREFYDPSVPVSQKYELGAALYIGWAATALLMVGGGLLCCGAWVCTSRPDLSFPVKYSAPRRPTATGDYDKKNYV


What was measured:
[1] = molecular target: T1, wild-type human CLDN-5 protein; assay: FACS saturation binding on HT-1080/hCLDN-5, one-site fit; Lot 2
Method: (§1) The obtained CLDN-expressing cells were seeded in a 10 cm dish, and on the next day, the cells were collected. The primary antibodies (100 μL) were added to the obtained 1.0×10⁵ cells and allowed to react for 1 hour at 4° C. At this time, a mixed solution of a C-CPE mutant (C-CPEmt) and a mouse anti-His tag antibody (Abeam) used in Non-Patent Literature 3 was used as positive control. The cells were washed three times with 0.2% BSA-PBS, then mixed with 100 μL of a secondary antibody solution (FITC conjugated goat anti-mouse IgG or anti-rat IgG (Jackson Immune Research, 115-095-003 or 112-095-003) 400x diluted with 1% BSA-PBS, and allowed to react for 1 hour at 4° C. The cells were washed with 0.2% BSA-TBS and then analyzed using FACS caliber (BD Bioscience).
(§2) By using HT-1080/hCLDN-5 and 100 μL of the anti-CLDN-5 antibody at each concentration diluted with 1.0% BSA-PBS, FACS assay was performed in the same manner as in Example 3-1). […] At this time, the equation of saturation binding-one site-specific binding of Graph Pad prism 7 (Graph Pad Software) was used.

[2] = molecular target: T1, wild-type human CLDN-5 protein; assay: FACS saturation binding on HT-1080/hCLDN-5, one-site fit; Lot 1
Method: as §1, §2

mCLDN-3 protein = molecular target: T2, mCLDN-3 protein; assay: FACS, hybridoma supernatant on CLDN-expressing cells
Description: (§3) By the insertion of a DNA fragment consisting of an hCLDN-1 protein (SEQ ID NO: 30)-encoding sequence, an hCLDN-2 protein (SEQ ID NO: 31)-encoding sequence, an hCLDN-3 protein (SEQ ID NO 32)-encoding sequence, an hCLDN-4 protein (SEQ ID NO: 33)-encoding sequence, an hCLDN-6 protein (SEQ ID NO: 34)-encoding sequence, an hCLDN-7 protein (SEQ ID NO: 35)-encoding sequence, an mCLDN-1 protein (SEQ ID NO: 37)-encoding sequence, an mCLDN-2 protein (SEQ ID NO: 38)-encoding sequence, an mCLDN-3 protein (SEQ ID NO: 39)—encoding sequence, or an mCLDN-5 protein (SEQ ID NO: 29)-encoding sequence, vectors for preparing a retrovirus were obtained. By using these vectors and the vector for preparing a retrovirus prepared in Example 1-2), various CLDN protein-expressing cells were prepared. By using these cells and a culture supernatant of hybridomas producing antibodies as primary antibodies, FACS assay was performed by the following method.
as §1

mouse CLDN-5 protein = molecular target: T3, mouse CLDN-5 protein; assay: as above
Description: as §3, §1

mCLDN-1 protein = molecular target: T4, mCLDN-1 protein; assay: as above
Description: as §3, §1

mCLDN-2 protein = molecular target: T5, mCLDN-2 protein; assay: as above
Description: as §3, §1

[3] = molecular target: T6, crab-eating macaque CLDN-5 protein; assay: FACS on CLDN-5-expressing cells, antibody 5 µg/mL
Method: as §1
In the same manner as in Example 1-2), a DNA fragment consisting of a cCLDN-5 protein (SEQ ID NO: 28)-encoding sequence or an mCLDN-5 protein (SEQ ID NO: 29)-encoding sequence was inserted into a pCX4pur vector, thereby obtaining vectors for preparing a retrovirus. By using these vectors with the vector for preparing a retrovirus prepared in Example 1-2), various animal species CLDN-5 protein-expressing cells were prepared. By using these cells and the antibodies (antibody concentration: 5 μg/mL, as primary antibody), FACS assay was performed in the same manner as in 3-1).

Row | Binder | Kd [1] [nM] | Kd [2] [nM] | binding result (mCLDN-3 protein) | binding result (mouse CLDN-5 protein) | binding result (mCLDN-1 protein) | binding result (mCLDN-2 protein) | binding result [3]
1 | rat anti-CLDN-5 antibody R14 (antibody, rat IgG2a, V domains shown, Hybridoma monoclonal; also called antibody K) VH: QVTLKESGPGILQPSHTLSLTCSFSGFSLSTYGMGVSWIRQPSGKGLEWLASIWWNGRTYTNPSLMSRLTVSKDTSTNQAFLRVTSVETADTATYYCAHTPYDYSNLGWFTYWGQGTLVTVSS VL: DILMTQTPSSQAVSAGEKVTVSCKSSQSLLYSGDQKSYLAWYQQKPGQSPKLLIYLASTRKSGVPDRFIGSGSGTDFTLTISSVQAEDLADYYCQQHYTYPLTFGSGTKLEI | 8.42 | 4.66 | no binding | no binding | no binding | no binding | binds
2 | rat anti-CLDN-5 antibody R2 (antibody, rat IgG2a, V domains shown, Hybridoma monoclonal; also called antibody F) VH: QVQLKESGPGLVQPSQTLSLTCTVSGLSLIRNSVSWIRQPPGKGLEWMGVIWSNGGTEYNSTVKSRLSISRDTSKNQVFLKMNSLQTEDSAMFFCARTPDGYYPYFDYWGQGVMVTVSS VL: DIVLTQSPATLSVTPGESVSLSCRASQGISTSIHWYQQKSNESPRLLIRYASQSISRIPSRFSGSGSGTDFTLTINGVESEDLSVYYCQQSYNLPLTFGSGTKLEI | 20.7 | 20.1 | no binding | no binding | no binding | no binding | –
3 | mouse anti-CLDN-5 antibody M48 (antibody, mouse IgG3, V domains shown, Hybridoma monoclonal; also called antibody E) VH: QAYLQQSGAELVRPGASVKMSCKASGYTFTSYNMHWVKKTRRQGLEWIGAISPGNGNTSYNQKFKGKATLTVDKSSSTAYMQLSSLTSEDSAVYFCARDDGYYGALDYWGQGTSVTVSS VL: DIVLTQSPATLSVTPGESVSLSCRASQGISTSIHWYQQKSNESPRLLIRYASQSISRIPSRFSGSGSGTDFTLTINGVESEDLSVYYCQQSYNLPLTFGSGTKLEI | 8.47 | 29.1 | no binding | – | no binding | no binding | –
4 | mouse anti-CLDN-5 antibody M11 (antibody, mouse IgG2b, V domains shown, Hybridoma monoclonal; also called antibody B) VH: QVQLKQSGPGLVQPSQSLSITCTVSGFSLIRYGVHWVRQSPGKGLEWLGVKWSGGSTDYNGAFKSRLSISKDNSKSQVFFKMNSLQADDTAIYYCARGLDGYYVPDVWGTGTSVTVS VL: DIVMTQSHKFMSTSVGDRVSITCKASQDVSTNVAWYQQKPGQSPTLLIYWASTRHTGVPDRFTGSGSGTDYTLTISSVQAEDLALYYCQQHYSTPLTFGAGTKLELRR | 9.68 | 8.72 | no binding | no binding | no binding | no binding | binds

Now those with a lower Kd [1], led by results:

Row | Kd [1] [nM] | Kd [2] [nM] | binding result (mCLDN-3 protein) | binding result (mouse CLDN-5 protein) | binding result (mCLDN-1 protein) | binding result (mCLDN-2 protein) | binding result [3] | Binder
5 | 2.44 | 7.19 | no binding | no binding | no binding | no binding | binds | rat anti-CLDN-5 antibody R3 (antibody, rat IgG2a, V domains shown, Hybridoma monoclonal; also called antibody G) VH: EVQLVESGGGLVQPGRSLKLSCAASGFTFSDYYMAWVRQAPKKGLEWVASISYEGRNTYYGDSVKGRFTISRDNAKSTLYLQMKSLRSEDTATYYCTRHPRRYFDYWGQGVMVTVSS VL: DIVMTQSPSSLAVSAGETVTMNCRSSQSLFSSGDQKKFLAWYQQKPGQSPKLLISLASTRESGVPDRFIGSGSGTDFTLTINNMQAEDLAIYYCQQHYDIPYTFGAGTKLEL
6 | 6.41 | 3.89 | no binding | no binding | – | no binding | binds | mouse anti-CLDN-5 antibody M3 (antibody, mouse IgG2b, V domains shown, Hybridoma monoclonal; also called antibody A) VH: EVQLQQSGPELVKPGASVKISCKASGYSFTGYYMNWVKQSPEKSLEWIGDINPSTGGATYNQKFKAKATLTVDKSSSTAYMQLKSLTSEDSAVFYCALYSNYGFVYWGQGTLVTVSA VL: not shown
7 | 2.75 | 3.78 | no binding | – | no binding | no binding | binds | rat anti-CLDN-5 antibody R9 (antibody, rat IgG2b, V domains shown, Hybridoma monoclonal; also called antibody I) VH: QVTLKESGPGILQPSHTLSLTCSFSGFSLNTYGVGVNWIRQPSGKGLEWLASIWWHGKTYINPSLKNRLTVSKDPSNNQAFLEVTNVDPADTATYYCAHARAQLLDYWGQGVMVTVSS VL: DIVMTQTPSSQAVSAGEKVTMSCKSSQSLLYSGDQKNYLAWYQQKPGQSPKLLIYLTSTRESGVPDRFIGSGSGTDFTLTISSVQAEDLADYYCQQHYSYPLTFGSGTKLEI
8 | 2.78 | 3.77 | no binding | no binding | no binding | no binding | binds | mouse anti-CLDN-5 antibody M23 (antibody, mouse IgG2b, V domains shown, Hybridoma monoclonal; also called antibody C) VH: EVQLQQSGPVLVKPGPSVMISCKASGFTFTDYYMHWVKQSHGKSLEWIGLVYPYNGGTDYNQKFKGKATLTVDTSSSTAYMELNSLTSEDSAVYYCARCLYDGLYFYAMDYWGQGTSVTVSS VL: DIVMSQSPSSLAVSAGEKVTMTCKSSQSLLNSRARKNYLAWYQQKAGQSPKLLMYWASTRESGVPDRFTASGSGTDFTLTISSVQAEDLAVFYCKQSYNLPWTFGGGTKLEIKR

From patent publication US20200148765A1 (OSAKA UNIVERSITY, published 2020)
